Measurements reported in publication doi:10.1101/2023.01.27.525930.

Target: Polyketide synthase 13 (Pks13) of Mycobacterium smegmatis (Mycobacterium smegmatis) (UniProt A0R617)
Test: native gel or EMSA; blue native PAGE of the protein of both sizing-column peaks; purified in β-DDM

**Q.** Which stoichiometry N does the source give for “Polyketide synthase 13 (Pks13) of Mycobacterium smegmatis (from UniProt A0R617 1-1816) (enzyme)” here?
**A.** 2
